Experiment: yeast display, Sf9 membrane polyspecificity reagent, FACS + sequencing; frameworks hold sequencing errors
Method in brief: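 A synthetic nanobody library was expressed on Saccharomyces cerevisiae BJ5465 by galactose induction for 36–48 hours. The library was stained for 1 hour at 4 °C with 10% biotinylated, detergent-solubilized Sf9 membrane reagent and enriched with streptavidin microbeads before FACS. Low and high (top ~1%) gates were set on anti-HA fluorescence for expression and streptavidin fluorescence for reagent binding, and each polyreactivity label reflects the gate of origin.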

Row | Sequence | polyreactivity (PSR sort gate)
1 | QVQLVESGGGLVQAGGSLRLSCAASGSTFYHYVMGWYRQAPGKERELGAAISWRGGRTYYADSVKGRFTISRDTAKNTVYLQMNSLKPEDTAVYYCARAYFQPSYYGVEYNYWGQGTQVTVSS | high polyreactivity
2 | QVQLVESGGGLVQAGGSLRLSCAASGRIFYKYAMGWYRPAPGKERELVAAISWSGGRTYYADSVKGRFTISRDNAKNTVYLQMNSLKPEDTAVYYCNAVYAGFLRVRYDYWGQGTQVTVSS | high polyreactivity
3 | QVQLVESGGGIVQAGGSLRLISAASGFIFAIYAMGWYRQAPGNERELVAGISSSGSTTRYADSVKVRFTISRDYAKYTVYLQLISLIPEDTAVYDCAADGYPGDDYWGQGTQVTVSS | high polyreactivity
4 | QVQLVESGGGLVQAGGSLRLSCAASGRIFRGYAMGWYRQAPGKERELVAAISGGGGSTYYADSVKGRFTISRDNAKNTVYLQMNSLKPEDTAVYYCNALRIRGSKVFEGDYWGQGTQVTVSS | high polyreactivity
5 | QVHLVESGGGLVQAAGSLRLSCAASGFIFYYYAMGWYRQAPGKERELVAAISRSGGRTYYADSVKGRFTISRDNAKNTVYLQMNSLKPEDTAVYYCAAPGYQTVGMGYWGQGTQVTVSS | high polyreactivity
6 | QVQLVESGGGLVQAGGSLRLSCAASGFIFAYYAMGWYIQAPGKERELVAAISLSGARTYYADSVKGRFTISRDTAKNTVYLQMNSLKPEDTAVYYCAATPWSYEYYYWGQGTQVTVSS | low polyreactivity
7 | QVQLVESGGGLVQAGGSLRLSCAASGIIFRRYAMGWYRQAPGKERELVAAITRGGITYYADSVKGRFTISRDNAKNTVYLQMNSLKPEDTAVYYCAATYSGTYSLGRGYDYWGQGTQVTVSS | low polyreactivity
8 | QVQLVESGGGLVQAGGSLRLSCAASGNTFPPNAMGWYRQAPGKERELVAAISWSGDSTYYADSVKGRFTISRDYAKNTVYLQMYSLKPEDTAVYYCAAAIFGEYEYWGQGTQVTVSS | low polyreactivity
9 | QVQLVESGGGLVQAGGSLRLSCAASGGTFYSYAMGWYRQAPGKERELVAAISRRGGSTYYADSVKGRFTISRDNAKNTVYLQMNSLKPEDTAVYYCNTYIYQVRDDYWGQGTQVTVSS | high polyreactivity
10 | QVQHVESGGGLVQAGGSLRLSCAASGSISKINAMGWYRQAPGKERELVAAINTGDSTYYADSVKGRFTISRDNAKNSVYLQMNSLKPEDSAVYYCAAEGSPTGYDYWGQGTQVTVSS | low polyreactivity
11 | QVQLVESGGGLVQAGGSLRLSCAASGFIFVGYAMGWYRQAPGKERELVAAISYSGGRTYYADSVKGRFTISRDNAKNTVYLQMNSLKPEDTAVYYCAAQSRYGGKFYYWGQGTQVTVSS | high polyreactivity
12 | QVQLVESGGGLVQAGGSLRLSCAASGSTFGINAMGWYRQAPGKERELVAAIDASGGTTYFADSVKGRFTISRDNAKNTVYLQMNSLKPEDTAVYYCAADDNYYTFGYWGQGTQVTVSS | high polyreactivity
13 | QVQLVESGGGLVQAGGSLRLSCAASGRIFNQYGMGWYRPAPGKERELVAAIRYGDSTNYADSVKGRFTISRDNAKNTVYLQMNSLKPEDTAVYYCARDPAGDYAGYDYWGQGTQVTVSS | low polyreactivity
14 | QVQLVESGGGLVQAGGSLRLSCAASGSTFAYYAMGWYRQAPGKEREFVAVINWRGGSTYYADSVKGRFTISRDNAKNTVYLQMNSLKQEDTAVYYCNGRSGGYYYGFDYWGQGTQVTVSS | low polyreactivity
15 | QVQLVESGGGLVHAGGSLRLSCAASGRISSSYAMGWYRQAPGKERELVAAITSRGGSTYYADSVKGRFTISRDNAKNTVYLQMNSLKPEDTAVYYCAKYQYYRSTDDYWGQGTQVTVSS | low polyreactivity
16 | QVQLVESGGGLVQAGGSLRLSCAASGRTFPDNAMGWYRQAPGKESEFVAAISSSGSTYYADSVKGRFTISRDNAKNTVYLQMNSLKPEDTAVYYCNRDDWPSYDFTGGDYWGQGTQVTVSS | low polyreactivity
17 | QVQLVESGGGLVQAGGSLRLSCAASGFTFAPYAMGWYRQAPGKERELVAAISSNGGSTYYADSVKGRFTISRDNAKNTVYLQMISMKPEYTAVYYCAVTSIGYTRYYYWGHGTQVTVSS | high polyreactivity
18 | QVQLVESGGGLVQAGGSLRLSCAASGFIFVKNAMGWYRQAPGKERELVAVISTRGGRTYYADSVKGRFTISRDNAKNTVYLQMNSMKPEDTAVYYCAAGDQYKTRRNGYGYWGQGTQVTVSS | high polyreactivity
19 | QVQLLESGGGLVQAGGSLRLSCAASGRMFGSNAMGWYRQAPGKERELVAAITRGGSTNYADSVKGRFTISRDNAKNTVYFQMNSLKPEDTAVYYCAVRWYRKYNYWGQGTQVTVSS | high polyreactivity
20 | QVQLVESGGGLVQAGGSLRLSCAASGSNFGKYAMGWYRPAPGKERELVATITRRGGSTYYADSVKGRFTISRDNAKNTVYLQMNSLKPEDSAVYYCAKRSNGYVDYGYWGQGTQVTVSS | high polyreactivity
21 | QVQHVDSGGGLVQEGGSLRLICAASGSIFEQYTMGWYIQAPGKERELVAAISRRSGRTYYADSVKGRFTISRDNAKNTVYLQMNSLKPADTAVYYCAAQHAIYRNPGLDDYWGQGTQVTVSS | high polyreactivity
22 | QVQLVESGGGLVQAGGSLRLSCAASGSTSQYNAMGWYRQAPGKERELVAAISWSGTSTYYADSVKGRFTISRDNAKNTVYLQMNSLKPEDTAVYYCAADYIFDYDYWGQGTQVTVSS | low polyreactivity

Row | Sequence | polyreactivity (PSR sort gate)
23 | QVQLVESGGGLVQAGGSLRLSCAASGITFYYYTMGWYRQAPGKERELVAGITRGGRTYYADSVKGRFTISRDNAKNTVYLQMNSLKPEDTAVYYCAADYSYIYGFDYWGQGTQVTVSS | low polyreactivity
24 | QVQLVESGVGLVQAGGSLRLSCAASGGIFAVYAMGWYIQAPGKERELVAAITWRGGSTRYADSVKGRFTISRDNAKNTVYLQMNSLKPEDTAVYYCAVRSTGYPSRYYYWGQGTQVTVSS | high polyreactivity
25 | QVQLEESGGGLDQAGGSLRLSCAASAIIFALYARGWYSQARGKHRELVATITYSGGSTNYADSLKGRYTISRDNAKNPVYLLMHSLKPEDTAVYYCAAASVPWGGYYSGQGTQVTVSS | low polyreactivity
26 | QVQLVESGGGLVQAGGSLRLSCAASGSIFGGYAMGWYRQAPGKERELVAAISSGGSTYYADSVKGRFTISRDNAKNTVYLQMNSLKPEDTAVYYCATSTYAYRRNSYDYTRPRFGYWGQGTQVTVSS | high polyreactivity
27 | QVQLVESGGGLVQAGGSLRFICAASGNTLNYYTMGWYRQAPGKERELVAAISSSGGSTYYADSVKGRFTISRDNAKNTVYLQMNSLQPEDTAVYYCNASVINEMNYWGQGTQVTVSS | low polyreactivity
28 | QVQLVESGGGLVQAGGSLRLSCAASGFTFTPNAMGWYRQAPGKERELVAAITSDGTTYYADSVKGRFTISRDNAKNTVYLQMNSLNPEDTAVYYCAADGGISAGANSGYDYWGQGTQVTVSS | high polyreactivity
29 | QVQLVESGGGLVQAGGSLRLSCAASGSICYSYAMGWYRQAPWKEREFVATISDSSGSTYYADSVKGRFTISRDYATNTVYLQMNSLKPEDSAVYYCATTDSYGYYGYGYWGQGTQVTVSS | low polyreactivity
30 | QVQLVESGGGLVQAGGSLRLSCAASAWYAMGWYRQAPGKEREFVAAITFSGSSTYYADSVKGRFTISRDNAKNTVYLQMNSLKPEDTAVYYCNADWWEWGQGTQVTVSS | low polyreactivity
31 | QVQLVESGGGLVQAGGSLRLSCAASGSTFYPYTMGWYRQAPGKERELVASISTTGGSTNYADSVKGRFTISRDNAKNTVYLQMNSLKPEDTAVYYCAARSNYTRRLYYYYWGLGTQVTVSS | high polyreactivity
32 | QVQLVESGGGLVQAGGSLRLSCAASGRIFDKYTMGWYRQAPGKERELVATMTRGGVSTYYADSVKGRFTISRDNAKNTVYLQMNSLKPEDTAVYYCNAVWRLRVRYGYWGQGTHVTVSS | high polyreactivity
33 | QVQLVESGGGLVQAGGSLRLRCAASGFIFCSYAMGWYRQAPGKERELVAAINTSGDSTYYADSVKGRFTISRDNAKNTVYLQINSLKPEDTAVYYCAAESSPDGYFLSDYWGQGTQVTVSS | low polyreactivity
34 | QVQLVESGGGLVQAGGSLRLSCAASGLIFRWYAMGWYRQAPGTERELVAAISRRGGTTNYADSVKGRFTISRDNAKNTVYLQMNSLKPEDTAVYYCAADYQSVGGAEYDYWGQCTQVTVSS | high polyreactivity
35 | QVQLVESVGGLVQAGGSLRLSSAASGRTFRYYTMVWYTQAPGKEREFVAAISSTGGTYYADSVKGRFTISRDNAKNTVYLQMNSLKPEDTAVYYCAATFIQVVVNVQMYDYDYWGQGTQVTVSS | low polyreactivity
36 | QVQLVESGGGLVQAGGSLRLSCAASGRTYVNTMGWYRQAPGKERELVAAISWSGGRTRYADSVKGRFTISRDNAKNTVYLQMNSLKPEDTAVYYCAKRTYSRKFRGAYNYWGQGTQVTVSS | high polyreactivity
37 | QVQLVESGGGLVQAGGSLRLSCAASGSIFTRYAMGWYRQAPGKDRELDADIRWGGGDTYYADSVKGRFTNSRDNAKNTVYLQMNSLTPEDTAVYYCNADHTFIKYYPDWGDYGRDYDYWGQGTQVTVSS | low polyreactivity
38 | QVQLVESGGGLVQAGGSLRLSCAASGSTFYVYAMGWYRQAPGKERELVAAITRGGSTYYADSVKGRFTISRDNAKNTVYLQMNSLKPEDTAVYYCAKYLSGAADLVPEYDYWGQGTQVTVSS | low polyreactivity
39 | QDQLVESGGGLVQAGGSLRLSFAASGRTFDRNTMGWYRQAPGKERELVAAISSSGGSTYYADSVKGRFTISRDNAKNTVYLEMNSLIPEDTAVYYCAVLSRQYFRYGYDYCGQGTQVTVSS | high polyreactivity
40 | QVQLVESGGGLVQAGGSLRLSCAASGNTLYSYAMGWYRQAPGKERELVAAITKSGGRTYYADSVKGRFTISRDNAKNTVYLQMNSLKPEDTADYYCNAVFLPTYHFDYWGQGTQVTVSS | high polyreactivity
41 | QVQLVESGGGLVQAGGSLRLSCAASGRTFGWTVMGWYRPAPGKDRELVAAISGSGGSTYYADSVKGRFTISRDNAKNTVYLQMNSLKPEDTAVYYCAALYGPAREYDYWGQGTQVTVSS | low polyreactivity
42 | QVQLVESGGGLVQAGGSLRLSCAASGITFSYYAMGWYRPAPGKERELVAAINSGGGSTYYADSVKGRFTISRDNAKNTVFLQMNSLKPDDTAVYYCAARYRSRYEYYYDRDYWGQGTQVSVSS | low polyreactivity
43 | QVQLVESGGGLVQAGGSLRLSCAASGLIFPIYTMGWYRQAPGKERELVAAISSRGGSTYYADSVKGRFTISRDNAKNTVYLQMNSLKPEDTAVYYCAAQFRFSGMGYWGQGTQVTVSS | high polyreactivity

From the nanobody polyreactivity screen of Harvey et al. (2022)
